Data published in the supplement of paper PMC9112550, “Optimization of the antimicrobial peptide Bac7 by deep mutational scanning” (BMC Biology, 2022).

These sequences were tested on Escherichia coli TOP10 (assay: shrunken log2 fold change of peptide-encoding DNA abundance (4.5 h post-induction vs induction); higher = less antimicrobial activity (less host growth inhibition)). Details: time post-induction: 4.5 h; library: site-saturation at positions 5, 18, 19, 20.
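Note: peptides expressed intracellularly from a pBAD plasmid library in pooled LB shake-flask culture, induced with 0.3% L-arabinose, DNA abundance read by NGS, three biological replicates, DESeq2 with apeglm shrinkage.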

| Sequence | shrunken log2 fold change |
| --- | --- |
| RRIRIRPPRLPRPRPRPKKDPRP | -0.602 |
| RRIRLRPPRLPRPRPRPFYWPRP | 0.228 |
| RRIRNRPPRLPRPRPRPFFYPRP | -0.242 |
| RRIRYRPPRLPRPRPRPATDPRP | -0.327 |
| RRIRPRPPRLPRPRPRPLFWPRP | 0.296 |
| RRIRRRPPRLPRPRPRPLMDPRP | 0.235 |
| RRIRSRPPRLPRPRPRPRTYPRP | -0.452 |
| RRIRRRPPRLPRPRPRPHGDPRP | 0.0543 |
| RRIRCRPPRLPRPRPRPGHAPRP | 0.297 |
| RRIRRRPPRLPRPRPRPTCKPRP | 0.0874 |
| RRIRIRPPRLPRPRPRPALAPRP | 0.202 |
| RRIRTRPPRLPRPRPRPYIGPRP | -0.119 |
| RRIRDRPPRLPRPRPRPQKVPRP | -0.114 |
| RRIRPRPPRLPRPRPRPCPWPRP | 0.889 |
| RRIRWRPPRLPRPRPRPTGKPRP | 0.294 |
| RRIRCRPPRLPRPRPRPATTPRP | 0.151 |
| RRIRERPPRLPRPRPRPQSEPRP | -0.000579 |
| RRIRQRPPRLPRPRPRPCVEPRP | -0.206 |
| RRIRKRPPRLPRPRPRPGCKPRP | 0.189 |
| RRIRKRPPRLPRPRPRPQSPPRP | 0.18 |
| RRIRCRPPRLPRPRPRPALRPRP | 0.457 |
| RRIRIRPPRLPRPRPRPNQFPRP | -0.0326 |
| RRIRYRPPRLPRPRPRPMWDPRP | 0.0162 |
| RRIRYRPPRLPRPRPRPGPPPRP | 0.277 |
| RRIRCRPPRLPRPRPRPVPSPRP | -0.119 |

| Sequence | shrunken log2 fold change |
| --- | --- |
| RRIRTRPPRLPRPRPRPVVFPRP | -0.184 |
| RRIRWRPPRLPRPRPRPCPHPRP | -0.00679 |
| RRIRSRPPRLPRPRPRPHDKPRP | -0.214 |
| RRIRWRPPRLPRPRPRPLGEPRP | 0.224 |
| RRIRERPPRLPRPRPRPAYHPRP | -0.223 |
| RRIRHRPPRLPRPRPRPSMFPRP | -0.163 |
| RRIRDRPPRLPRPRPRPNYLPRP | -0.126 |
| RRIRYRPPRLPRPRPRPRDGPRP | -0.0431 |
| RRIRCRPPRLPRPRPRPCKHPRP | -0.339 |
| RRIRDRPPRLPRPRPRPLQRPRP | -0.00347 |
| RRIRTRPPRLPRPRPRPSMHPRP | -0.152 |
| RRIRQRPPRLPRPRPRPNILPRP | -0.233 |
| RRIRARPPRLPRPRPRPIITPRP | -0.298 |
| RRIRGRPPRLPRPRPRPCPPPRP | 0.284 |
| RRIRKRPPRLPRPRPRPTFAPRP | 0.673 |
| RRIRKRPPRLPRPRPRPDWYPRP | -0.149 |
| RRIRFRPPRLPRPRPRPYQPPRP | -0.269 |
| RRIRTRPPRLPRPRPRPGDDPRP | 0.24 |
| RRIRTRPPRLPRPRPRPRGAPRP | 0.382 |
| RRIRPRPPRLPRPRPRPWTGPRP | -0.125 |
| RRIRIRPPRLPRPRPRPIFCPRP | -0.0695 |
| RRIRNRPPRLPRPRPRPYTVPRP | 0.0303 |
| RRIRGRPPRLPRPRPRPKMNPRP | 0.407 |
| RRIRARPPRLPRPRPRPEKFPRP | -0.0388 |
| RRIRGRPPRLPRPRPRPLVKPRP | 0.546 |
